In publication PMC6555819, “Comprehensive study of nuclear receptor DNA binding provides a revised framework for understanding receptor specificity”:

molecular target: LXRa:RXRa (Homo sapiens, UniProt Q13133;P19793 full;full); assay: no ligand; PBM; 270 nM : 90 nM RXRa; PBS pH 7.4, 2% milk, 0.02% Triton X-100, 1 mM DTT, BSA, 0.4 mg/ml salmon testes DNA; conditions: tags: His kept;His cleaved; copies: 1;1; label: surface-attached array probe
In short: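 Binding z-scores were set against random background probes. The data came from custom Agilent 4×180K protein-binding microarrays carrying double-stranded probes with 34-nt variable regions, incubated 1 h with ligand-free nuclear receptor dimers. Partner-specific antibodies detected binding, and scanned fluorescence was regression-normalized.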

Sequence of LXRa:RXRa (Q13133 whole entry, chain 1 of 2): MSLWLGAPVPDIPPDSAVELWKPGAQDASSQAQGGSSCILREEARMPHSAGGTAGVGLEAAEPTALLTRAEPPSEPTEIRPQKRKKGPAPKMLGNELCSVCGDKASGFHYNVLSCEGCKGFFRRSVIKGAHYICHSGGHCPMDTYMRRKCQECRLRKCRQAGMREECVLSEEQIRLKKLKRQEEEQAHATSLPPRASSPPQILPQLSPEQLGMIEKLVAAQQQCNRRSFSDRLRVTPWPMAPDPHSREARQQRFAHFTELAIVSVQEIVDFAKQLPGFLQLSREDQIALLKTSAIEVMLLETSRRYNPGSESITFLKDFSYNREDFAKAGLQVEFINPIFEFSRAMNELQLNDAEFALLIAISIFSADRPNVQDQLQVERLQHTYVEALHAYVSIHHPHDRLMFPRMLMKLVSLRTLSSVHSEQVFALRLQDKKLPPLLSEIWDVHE
Sequence of LXRa:RXRa (P19793 whole entry, chain 2 of 2): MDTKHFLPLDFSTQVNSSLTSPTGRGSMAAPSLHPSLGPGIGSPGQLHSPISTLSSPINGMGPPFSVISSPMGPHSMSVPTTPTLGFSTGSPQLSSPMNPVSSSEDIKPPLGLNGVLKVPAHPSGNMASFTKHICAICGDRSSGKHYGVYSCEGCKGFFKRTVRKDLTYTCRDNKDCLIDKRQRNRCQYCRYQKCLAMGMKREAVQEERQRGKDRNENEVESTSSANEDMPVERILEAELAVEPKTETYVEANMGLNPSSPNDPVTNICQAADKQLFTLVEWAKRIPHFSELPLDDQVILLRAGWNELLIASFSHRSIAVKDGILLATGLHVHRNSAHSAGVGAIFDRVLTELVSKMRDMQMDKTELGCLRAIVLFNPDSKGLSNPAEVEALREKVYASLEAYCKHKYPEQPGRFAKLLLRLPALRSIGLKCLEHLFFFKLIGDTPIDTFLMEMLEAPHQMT

Binder	binding signal
NRC3_wobSeed76_DR3_o1 (dsDNA) DNA 1: GCCCTACTGGGCCAAAAAGGTCATTGATGCCGATAAGCGATTGACAGCGTAGAATGAAGG DNA 2: CCTTCATTCTACGCTGTCAATCGCTTATCGGCATCAATGACCTTTTTGGCCCAGTAGGGC	4.25 PBM z-score against 500 random probes
NRC3_wobSeed58_DR2_G21A_o1 (dsDNA) DNA 1: GCATCGAAAGGTCGTGAGGTAAGTATACAGAAAGGCGCGATTGACAGCGTAGAATGAAGG DNA 2: CCTTCATTCTACGCTGTCAATCGCGCCTTTCTGTATACTTACCTCACGACCTTTCGATGC	4.07 PBM z-score against 500 random probes
NRC3_wobSeed40_DR1_G5C_o1 (dsDNA) DNA 1: GCTACCCTAGGTCATGGGCCAGTATACCACGCGAACGCGATTGACAGCGTAGAATGAAGG DNA 2: CCTTCATTCTACGCTGTCAATCGCGTTCGCGTGGTATACTGGCCCATGACCTAGGGTAGC	6.6 PBM z-score against 500 random probes
NRC3_wobSeed5_DR0_A25C_o1 (dsDNA) DNA 1: GCCCTTACGGGTCAAGGTTATAGCCCGGGTGGTACGGCGATTGACAGCGTAGAATGAAGG DNA 2: CCTTCATTCTACGCTGTCAATCGCCGTACCACCCGGGCTATAACCTTGACCCGTAAGGGC	3.64 PBM z-score against 500 random probes
NRC3_wobSeed87_DR3_A21T_o1 (dsDNA) DNA 1: GCCGAACTAGGTCATCCAGGTCAGTGAATACATTGAGCGATTGACAGCGTAGAATGAAGG DNA 2: CCTTCATTCTACGCTGTCAATCGCTCAATGTATTCACTGACCTGGATGACCTAGTTCGGC	3.37 PBM z-score against 500 random probes
NRC3_wobSeed20_DR0_A17T_o1 (dsDNA) DNA 1: GCAGAATGAGGTTAAGTTCAGGGAAACAGAATACATGCGATTGACAGCGTAGAATGAAGG DNA 2: CCTTCATTCTACGCTGTCAATCGCATGTATTCTGTTTCCCTGAACTTAACCTCATTCTGC	3.43 PBM z-score against 500 random probes
NRC3_wobSeed4_DR0_G11T_o1 (dsDNA) DNA 1: GCCCTACTGGTCCAAGGTCATTGATCAGTCAAAGCAGCGATTGACAGCGTAGAATGAAGG DNA 2: CCTTCATTCTACGCTGTCAATCGCTGCTTTGACTGATCAATGACCTTGGACCAGTAGGGC	3.7 PBM z-score against 500 random probes
NRC3_wobSeed4_DR0_G11A_o1 (dsDNA) DNA 1: GCCCTACTGGACCAAGGTCATTGATCAGTCAAAGCAGCGATTGACAGCGTAGAATGAAGG DNA 2: CCTTCATTCTACGCTGTCAATCGCTGCTTTGACTGATCAATGACCTTGGTCCAGTAGGGC	3.62 PBM z-score against 500 random probes
NRC3_wobSeed124_DR5_T26A_o1 (dsDNA) DNA 1: GCCCTACTGGGCCATTCAGAGGTCAATGATCATATGGCGATTGACAGCGTAGAATGAAGG DNA 2: CCTTCATTCTACGCTGTCAATCGCCATATGATCATTGACCTCTGAATGGCCCAGTAGGGC	3.77 PBM z-score against 500 random probes
NRC3_wobSeed124_DR5_A14G_o1 (dsDNA) DNA 1: GCCCTACTGGGCCGTTCAGAGGTCATTGATCATATGGCGATTGACAGCGTAGAATGAAGG DNA 2: CCTTCATTCTACGCTGTCAATCGCCATATGATCAATGACCTCTGAACGGCCCAGTAGGGC	3.51 PBM z-score against 500 random probes
NRC3_wobSeed61_DR2_A17G_o1 (dsDNA) DNA 1: GCCGTCCAAGGTCAGCGGGTCAGTGAAAGCGACGTGGCGATTGACAGCGTAGAATGAAGG DNA 2: CCTTCATTCTACGCTGTCAATCGCCACGTCGCTTTCACTGACCCGCTGACCTTGGACGGC	3.86 PBM z-score against 500 random probes
NRC3_wobSeed37_DR1_G10A_o1 (dsDNA) DNA 1: GCCGTCCAAAGTCAAAGGTCAGTGAAGAGATGACGGGCGATTGACAGCGTAGAATGAAGG DNA 2: CCTTCATTCTACGCTGTCAATCGCCCGTCATCTCTTCACTGACCTTTGACTTTGGACGGC	3.96 PBM z-score against 500 random probes
NRC3_wobSeed18_DR0_A4T_o1 (dsDNA) DNA 1: GCGTTACAGGGTCAAGGCCAGAGTACGCGTATTGATGCGATTGACAGCGTAGAATGAAGG DNA 2: CCTTCATTCTACGCTGTCAATCGCATCAATACGCGTACTCTGGCCTTGACCCTGTAACGC	4.02 PBM z-score against 500 random probes
NRC3_wobSeed34_DR1_T23C_o1 (dsDNA) DNA 1: GCATCGAAAGGTCGAAGGTGAGCATACCCACCCGAAGCGATTGACAGCGTAGAATGAAGG DNA 2: CCTTCATTCTACGCTGTCAATCGCTTCGGGTGGGTATGCTCACCTTCGACCTTTCGATGC	3.46 PBM z-score against 500 random probes
NRC3_wobSeed141_DR5_G21C_o1 (dsDNA) DNA 1: GCAGTCAAAGTTCAGGACGACGTAACGTAAAGCACGGCGATTGACAGCGTAGAATGAAGG DNA 2: CCTTCATTCTACGCTGTCAATCGCCGTGCTTTACGTTACGTCGTCCTGAACTTTGACTGC	3.38 PBM z-score against 500 random probes
NRC3_wobSeed133_DR5_G22A_o1 (dsDNA) DNA 1: GCCGTCCAAGGTCAATGCTAGATCAGTGAAAGCATTGCGATTGACAGCGTAGAATGAAGG DNA 2: CCTTCATTCTACGCTGTCAATCGCAATGCTTTCACTGATCTAGCATTGACCTTGGACGGC	4.19 PBM z-score against 500 random probes
NRC3_wobSeed75_DR3_G16A_o1 (dsDNA) DNA 1: GCTCTCGGAGGACACAAAGGTCAGAGCTTTCCAGAGGCGATTGACAGCGTAGAATGAAGG DNA 2: CCTTCATTCTACGCTGTCAATCGCCTCTGGAAAGCTCTGACCTTTGTGTCCTCCGAGAGC	3.54 PBM z-score against 500 random probes

Binder	binding signal
NRC3_wobSeed2_DR0_T5G_o1 (dsDNA) DNA 1: GCCCGAGTTGGTCAAGGTCACACACGCTATAGGTACGCGATTGACAGCGTAGAATGAAGG DNA 2: CCTTCATTCTACGCTGTCAATCGCGTACCTATAGCGTGTGTGACCTTGACCAACTCGGGC	3.9 PBM z-score against 500 random probes
NRC3_wobSeed2_DR0_C23T_o1 (dsDNA) DNA 1: GCCCTAGTTGGTCAAGGTCACATACGCTATAGGTACGCGATTGACAGCGTAGAATGAAGG DNA 2: CCTTCATTCTACGCTGTCAATCGCGTACCTATAGCGTATGTGACCTTGACCAACTAGGGC	3.72 PBM z-score against 500 random probes
NRC3_wobSeed2_DR0_A24C_o1 (dsDNA) DNA 1: GCCCTAGTTGGTCAAGGTCACACCCGCTATAGGTACGCGATTGACAGCGTAGAATGAAGG DNA 2: CCTTCATTCTACGCTGTCAATCGCGTACCTATAGCGGGTGTGACCTTGACCAACTAGGGC	3.48 PBM z-score against 500 random probes
NRC3_wobSeed135_DR5_G26A_o1 (dsDNA) DNA 1: GCCGAACTAGGTCATTGACAGGACAATGAATAGTAAGCGATTGACAGCGTAGAATGAAGG DNA 2: CCTTCATTCTACGCTGTCAATCGCTTACTATTCATTGTCCTGTCAATGACCTAGTTCGGC	3.59 PBM z-score against 500 random probes
NRC3_wobSeed137_DR5_T27C_o1 (dsDNA) DNA 1: GCATATGTAGGTTACATCCGGGTCATCCAGGCTATGGCGATTGACAGCGTAGAATGAAGG DNA 2: CCTTCATTCTACGCTGTCAATCGCCATAGCCTGGATGACCCGGATGTAACCTACATATGC	4.22 PBM z-score against 500 random probes
NRC3_wobSeed123_DR5_G26T_o1 (dsDNA) DNA 1: GCCCTCGGAGGACAACAGGAGGTCATAGCTGCCAGAGCGATTGACAGCGTAGAATGAAGG DNA 2: CCTTCATTCTACGCTGTCAATCGCTCTGGCAGCTATGACCTCCTGTTGTCCTCCGAGGGC	3.93 PBM z-score against 500 random probes
NRC3_wobSeed136_DR5_G26C_o1 (dsDNA) DNA 1: GCTAGCCTAGGTCATTCAGGGGCCACTATAGAAAGCGCGATTGACAGCGTAGAATGAAGG DNA 2: CCTTCATTCTACGCTGTCAATCGCGCTTTCTATAGTGGCCCCTGAATGACCTAGGCTAGC	4.28 PBM z-score against 500 random probes
NRC3_wobSeed136_DR5_T27C_o1 (dsDNA) DNA 1: GCTAGCCTAGGTCATTCAGGGGCCAGCATAGAAAGCGCGATTGACAGCGTAGAATGAAGG DNA 2: CCTTCATTCTACGCTGTCAATCGCGCTTTCTATGCTGGCCCCTGAATGACCTAGGCTAGC	3.99 PBM z-score against 500 random probes
NRC3_wobSeed134_DR5_G26T_o1 (dsDNA) DNA 1: GCGCTGCTAGGTCAACTGATGGTCATCTAAAGCTCGGCGATTGACAGCGTAGAATGAAGG DNA 2: CCTTCATTCTACGCTGTCAATCGCCGAGCTTTAGATGACCATCAGTTGACCTAGCAGCGC	3.56 PBM z-score against 500 random probes
NRC3_wobSeed99_DR4_C13A_o1 (dsDNA) DNA 1: GCTCTCGGAGGAAACGAAAGGTCAGAGCTCGACATCGCGATTGACAGCGTAGAATGAAGG DNA 2: CCTTCATTCTACGCTGTCAATCGCGATGTCGAGCTCTGACCTTTCGTTTCCTCCGAGAGC	3.75 PBM z-score against 500 random probes
NRC3_wobSeed53_DR2_A22G_o1 (dsDNA) DNA 1: GCCCTTACGGGTCACGAGGTTGTAGCACGACGAGCGGCGATTGACAGCGTAGAATGAAGG DNA 2: CCTTCATTCTACGCTGTCAATCGCCGCTCGTCGTGCTACAACCTCGTGACCCGTAAGGGC	4.14 PBM z-score against 500 random probes
NRC3_wobSeed125_DR5_A30G_o1 (dsDNA) DNA 1: GCCCTTACGGGTCACTGACAGGTTATAGCGTTTGGAGCGATTGACAGCGTAGAATGAAGG DNA 2: CCTTCATTCTACGCTGTCAATCGCTCCAAACGCTATAACCTGTCAGTGACCCGTAAGGGC	4.16 PBM z-score against 500 random probes
NRC3_wobSeed93_DR3_G25A_o1 (dsDNA) DNA 1: GCAGTCAAAGTTCATCTAGGTAACATAAGATATGCTGCGATTGACAGCGTAGAATGAAGG DNA 2: CCTTCATTCTACGCTGTCAATCGCAGCATATCTTATGTTACCTAGATGAACTTTGACTGC	6.61 PBM z-score against 500 random probes
NRC3_wobSeed27_DR1_G10T_o1 (dsDNA) DNA 1: GCACTCGGATGACAAAGGTCAGAGCTACGCCAGTGAGCGATTGACAGCGTAGAATGAAGG DNA 2: CCTTCATTCTACGCTGTCAATCGCTCACTGGCGTAGCTCTGACCTTTGTCATCCGAGTGC	4.09 PBM z-score against 500 random probes
NRC3_wobSeed27_DR1_A23G_o1 (dsDNA) DNA 1: GCACTCGGAGGACAAAGGTCAGGGCTACGCCAGTGAGCGATTGACAGCGTAGAATGAAGG DNA 2: CCTTCATTCTACGCTGTCAATCGCTCACTGGCGTAGCCCTGACCTTTGTCCTCCGAGTGC	4.04 PBM z-score against 500 random probes
NRC3_wobSeed82_DR3_G17C_o1 (dsDNA) DNA 1: GCATCGAAAGGTCGACCAGGTGAGTATACACCGTTTGCGATTGACAGCGTAGAATGAAGG DNA 2: CCTTCATTCTACGCTGTCAATCGCAAACGGTGTATACTCACCTGGTCGACCTTTCGATGC	3.67 PBM z-score against 500 random probes
